Measured values: patent publication US20260226524A1, “GLUTAMINE SYNTHETASE MARKER FOR RECOMBINANT EXPRESSION” (priority 2023, published 2026)

Tests used:
[1] = system: Chinese Hamster Ovary CHO-K1 (CCL-61) host cell; experiment: Flow cytometry analysis of GS expression via UnaG fluorescence in electroporated cell pools; type: cell-based; conditions: about 3 weeks post-seeding; for UnaG expression of cells (selection efficiency): MSX selection, FIGS. 3A-3B
Excerpt: Vector design: Nearly all selectable marker currently used in GS system is Cricetulus griseus-derived GS. To investigate whether the GS from other species further improve titer or screening efficiency, a set of vectors were designed as described below: • a sequence coding for an eel green fluorescent protein UnaG, a 2A self-cleaving peptide and a glutamine synthetase, placed under the control of the SV40 promoter; • two expression cassettes, in which the sequences coding for the heavy chain and light chain of a human anti-RANKL antibody denosumab were placed under the control of CMV promoters, respectively; • a sequence coding for a protein conferring resistance to ampicillin, for use in prokaryotic cells; and • a prokaryotic origin of replication.
(§1) The 2A self-cleaving peptide allowed relatively equal molar expression of the two products separated by it, namely, the green fluorescent protein UnaG and glutamine synthetase. After random integration, GS expression in each individual cell was evaluated by monitoring UnaG level using flow cytometry. Denosumab here served as the secreted reporter for assessing titers using selectable glutamine synthetase markers from different species. The vectors differed from one another by the GS-coding sequences, which were derived from Chinese hamster (Cricetulus griseus), koala (Phascolarctos cinerecus), vesper bat (Pipistrellus kuhlii), gerbil (Meriones unguiculatus), ostrich (Struthio camelus australis), junglefowl (Gallus gallus), pigeon (Columbia Livia), and snake (Pseudonaja textilis), respectively.
(§2) Electroporation and cell screening: Expression vectors described above were first linearized by the restriction endonuclease Pvul (there was one Pvul site in the ampicillin resistant gene). Then linearized vectors were introduced into the host cell using cell electroporator (Lonza Nuleofector 2b). The host cell was derived from ATCC wild-type Chinese Hamster Ovary CHO-K1 (CCL-61) and adapted to serum-free suspension culture at Shanghai ZhenGe Biotech Co. Ltd. 24 hours post electroporation, cell pools were plated into culture flasks or 96-well plates (approximately 1, 200 cells/well, 300 wells per condition) in the absence of or presence of MSX (50 μM).
Flow cytometry analysis of GS expression: About 3 weeks post-seeding, cell pools electroporated with GS gene from indicated species were analyzed using Attune NxT flow cytometer (FIGS. 3A-3C). […] As shown, when the GS from Chinese Hamster was used as the selectable marker, most tested cells (>98%) remained UnaG “negative” in the presence of the MSX, indicating low selection efficiency.

[2] = system: Chinese Hamster Ovary CHO-K1 (CCL-61) host cell; experiment: Bio-Layer Interferometry (Octet) analysis of denosumab expression in supernatants of cell pools selected with GS markers; type: cell-based; conditions: 50 μM MSX; for pools expressed detectable denosumab (>0.125 ug/mL): Day 20, among 300 seeded pools in 96-well plates, GS used as selectable marker; for median expression value of denosumab of positive pools: Day 20, positive pools (>0.125 ug/mL), Octet ProA biosensor
Protocol: Vector design: Nearly all selectable marker currently used in GS system is Cricetulus griseus-derived GS.
as §1, with “After” for “The 2A self-cleaving peptide allowed relatively equal molar expression of the two products separated by it, namely, the green fluorescent protein UnaG and glutamine synthetase. After”
as §2

B1: Chinese hamster GS: Cricetulus griseus glutamine synthetase, SEQ ID NO: 9 (nucleotide SEQ ID NO: 18), Uniprot P04773; traditional selectable marker (protein, listed as Cricetulus griseus)
chain: MATSASSHLNKGIKQMYMSLPQGEKVQAMYIWVDGTGEGLRCKTRTLDCEPKCVEELPEWNFDGSSTFQSESSNSDMYLSPVAMFRDPFRKEPNKLVFCEVFKYNQKPAETNLRHTCKRIMDMVSNQHPWFGMEQEYTLLGTDGHPFGWPSDGFPGPQGLYYCGVGADKAYRRDIMEAHYRACLYAGVKITGTYAEVKHAQWEFQIGPCEGIRMGDHLWVARFILHRVCKDFGVIATFDSKPIPGNWNGAGCHTNFSTKTMREENGLKHIKEAIEKLSKRHRYHIRAYDPKGGLDNARRLTGFHKTSNINDFSAGVADRSASIRIPRTVGQEKKGYFEARCPSANCDPFAVTEAIVRTCLLNETGDQPFQYKN
modifications: Hamster GS
With B1 the “tested cells remaining UnaG negative” value ([1]; in the presence of the MSX (50 μM)) was over 98%, the “pools expressed detectable denosumab (>0.125 ug/mL)” value (“pools … (>0.125 ug/mL)” below) [2] was 4.3% and the “median expression value of denosumab of positive pools” value (“median expression value” below) [2] was 1.07 µg/mL.

B2: koala GS: Phascolarctos cinerecus glutamine synthetase, SEQ ID NO: 1 (nucleotide SEQ ID NO: 10), used as selectable marker (protein, listed as Phascolarctos cinereus)
chain: MATSASSHLNKNIKQMYMNLPQGNKVLAMYIWIDGTGEGLRCKTRTLDSEPKSIDDLPEWNFDGSSTYQSEGSNSDMYLVPAALFRDPFRKDPNKLVFCEVFKYNRKPAETNLRHTCKRIMDMVTNQKPWFGMEQEYTLMGTDGHPFGWPSNGFPGPQGPYYCGVGADKAYGRDIAEAHYRACLYAGVKIVGTNAEAMPSQWEFQIGPCEGIEMGDHLWVARFILHRVCEDFGMIVTFDPKPIPGNWNGAGCHTNFSTKAMREENGLKFIEEAIERLSKRHKYHIRAYDPKGGLDNARRLTGFNETSNINEFSAGVANRGASIRIPRMVGQDKKGYFEDRRPSANCDPYAVTEALIRTCLLNETGEEPFQYKN
modifications: Koala GS
B2 was tested, and the “UnaG expression of cells (selection efficiency)” value [1] was “significant amounts of cells showed positive UnaG expression”, the “pools … (>0.125 ug/mL)” value [2] was 85.6% and the “median expression value” value [2] was 2.86 µg/mL.

B3: ostrich GS: Struthio camelus australis glutamine synthetase, SEQ ID NO: 2 (nucleotide SEQ ID NO: 11), used as selectable marker (protein, listed as Struthio camelus)
chain: MATSASSHLSKAIKHMYMKLPQGEKVQAMYIWIDGTGEHLRCKTRTLDHEPKSLEDLPEWNFDGSSTFQAEGSNSDMYLRPAAMFRDPFRKDPNKLVLCEVFKYNRQSAETNLRHTCRRIMDMVSNQHPWFGMEQEYTLLGTDGHPFGWPSNGFPGPQGPYYCGVGADKAYGRDIVEAHYRACLYAGVKIGGTNAEVMPAQWEFQVGPCEGIEMGDHLWIARFILHRVCEDFGVIVSFDPKPIPGNWNGAGCHTNFSTKSMREDGGLKHIEEAIEKLGKRHQYHIRAYDPKGGLDNARRLTGFHETSSIHEFSAGVANRGASIRIPRNVGHEKKGYFEDRRPSANCDPYAVTEALVRTCLLNETGDEPFEYKN
modifications: OstrichGS
B3 was tested, and the “UnaG expression of cells (selection efficiency)” value [1] was “significant amounts of cells showed positive UnaG expression”, the “pools … (>0.125 ug/mL)” value [2] was 65.3% and the “median expression value” value [2] was 2.57 µg/mL.

B4: snake GS: Pseudonaja textilis glutamine synthetase, SEQ ID NO: 3 (nucleotide SEQ ID NO: 12), used as selectable marker (protein, listed as Pseudonaja textilis)
chain: MATSASSHLSKTIKQMYMKLPQGDKVQAMYIWIDGTGEFLRCKTRTLEREPKNVEDLPEWNFDGSSTFQSEGSNSDMYLVPSAMFRDPFRKDPNKLVLCEVLKYNRKPAETNLRSTCKRIMDMVSNQNPWFGMEQEYTLLGTDGHPFGWPSNGFPGPQGPYYCGVGADKAYGRDVVEAHYRACLYAGVNIGGTNAEVMPAQWEFQVGPCEGVDMGDHLWIARFILHRVCEDFGVIVSFDPKPIPGNWNGAGCHTNFSTKNMREEGGLKQIEDAIEKLGKRHQYHIRAYDPKGGLDNARRLTGFHETSNIHEFSAGVANRGASIRIPRNVGQVKKGYFEDRRPSANCDPYAVTEALVRTCLLNETGDEPFEYKN
modifications: Snake GS
B4 was tested, and the “UnaG expression of cells (selection efficiency)” value [1] was “significant amounts of cells showed positive UnaG expression”, the “pools … (>0.125 ug/mL)” value [2] was 38.0% and the “median expression value” value [2] was 1.75 µg/mL.

B5: pigeon GS: Columbia Livia glutamine synthetase, SEQ ID NO: 5 (nucleotide SEQ ID NO: 14), used as selectable marker (protein, listed as Columbia livia)
chain: MALLRSVQCLLTYRASSYRLPALGGFVNLLQHSGGDRSATAACTRNPLVRSAAMATSASSHLSKAIKHMYMKLPQGDKVQAMYIWIDGTGEHLRCKTRTLDHEPKSLEDLPEWNFDGSSTFQSEGSNSDMYLRPAAMFRDPFRKDPNKLVLCEVFKYNRQSAETNLRHTCRRIMDMVSNQHPWFGMEQEYTLLGTDGHPFGWPSNGFPGPQGPYYCGVGADKAYGRDIVEAHYRACLYAGVKIGGTNAEVMPAQWEFQVGPCEGIEMGDHLWIARFILHRVCEDFGVIVSFDPKPIPGNWNGAGCHTNFSTKEMREDGGLKHIEEAIEKLSKRHQYHIRAYDPKGGLDNARRLTGFHETSNIHEFSAGVANRGASIRIPRSVGHEKRGYFEDRRPSANCDPYAVTEALVRTCLLNETGDEPFEYKN
modifications: pigeon GS
In the case of B5, the “UnaG expression of cells (selection efficiency)” value [1] is reported as “significant amounts of cells showed positive UnaG expression”, the “pools … (>0.125 ug/mL)” value [2] is reported as 52.0% and the “median expression value” value [2] is reported as 2.27 µg/mL.

B6: junglefowl GS: Gallus gallus glutamine synthetase, SEQ ID NO: 6 (nucleotide SEQ ID NO: 15), used as selectable marker (protein, listed as Gallus gallus)
chain: MLRSLQCLLAYRVGSLPLRSWGHRLATTAHARTALASSAAMATSASSHLSKAIKHMYMKLPQGEKVQAMYIWIDGTGEHLRCKTRTLDHEPKSLEDLPEWNFDGSSTFQAEGSNSDMYLRPAAMFRDPFRKDPNKLVLCEVFKYNRQSADTNLRHTCRRIMDMVSNQHPWFGMEQEYTLLGTDGHPFGWPSNGFPGPQGPYYCGVGADKAYGRDIVEAHYRACLYAGVKIGGTNAEVMPAQWEFQVGPCEGIEMGDHLWIARFILHRVCEDFGVIVSFDPKPIPGNWNGAGCHTNFSTKNMREDGGLKHIEEAIEKLSKRHQYHIRAYDPKGGLDNARRLTGFHETSSIHEFSAGVANRGASIRIPRNVGHEKKGYFEDRRPSANCDPYAVTEALVRTCLLNETGDEPFEYKN
modifications: Junglefowl GS
In the case of B6, the “UnaG expression of cells (selection efficiency)” value [1] is reported as “significant amounts of cells showed positive UnaG expression”, the “pools … (>0.125 ug/mL)” value [2] is reported as 73.6% and the “median expression value” value [2] is reported as 2.51 µg/mL.

B7: gerbil GS: Meriones unguiculatus glutamine synthetase, SEQ ID NO: 7 (nucleotide SEQ ID NO: 16), used as selectable marker (protein, listed as Meriones unguiculatus)
chain: MATSASSQLNKGIKQTYLALPQGEKVQAMYIWVDGTGEGLRCKTRTLDCEPKSVEELPEWNFDGSSTFQSEGSNSDMYLTPVAMFRDPFRKEPNKLVFCEVFKYNRKPAETNLRHSCKRIMEMVSNQRPWFGMEQEYTLMGTDGHPFGWPSNGFPGPQGPYYCGVGADKAYGRDIVEAHYRACLYAGVKIAGTNAEVMPAQWEFQIGPCEGVRMGDHLWVARFILHRVCEDFGVIATFDPKPIPGNWNGAGCHTNFSTKAMREENGLKFIEEAIEKLSKRHQYHIRAYDPKGGLDNARRLTGFHETSNINDFSAGVANRSASIRIPRTVGQEKKGYLEDRRPSANCDPYAVTEALVRTCLLNETGDEPFQYKN
modifications: Gerbil GS
For B7, the “UnaG expression of cells (selection efficiency)” value [1] was “significant amounts of cells showed positive UnaG expression”, the “pools … (>0.125 ug/mL)” value [2] was 63.6% and the “median expression value” value [2] was 2.67 µg/mL.
